Measurements from patent US20190024095A1.

Biological target: CD19 on Raji B cells (UniProt P15391)
Test: cell-based or functional assay

Sequence of UniProt P15391 (P15391 20-556 limits assumed): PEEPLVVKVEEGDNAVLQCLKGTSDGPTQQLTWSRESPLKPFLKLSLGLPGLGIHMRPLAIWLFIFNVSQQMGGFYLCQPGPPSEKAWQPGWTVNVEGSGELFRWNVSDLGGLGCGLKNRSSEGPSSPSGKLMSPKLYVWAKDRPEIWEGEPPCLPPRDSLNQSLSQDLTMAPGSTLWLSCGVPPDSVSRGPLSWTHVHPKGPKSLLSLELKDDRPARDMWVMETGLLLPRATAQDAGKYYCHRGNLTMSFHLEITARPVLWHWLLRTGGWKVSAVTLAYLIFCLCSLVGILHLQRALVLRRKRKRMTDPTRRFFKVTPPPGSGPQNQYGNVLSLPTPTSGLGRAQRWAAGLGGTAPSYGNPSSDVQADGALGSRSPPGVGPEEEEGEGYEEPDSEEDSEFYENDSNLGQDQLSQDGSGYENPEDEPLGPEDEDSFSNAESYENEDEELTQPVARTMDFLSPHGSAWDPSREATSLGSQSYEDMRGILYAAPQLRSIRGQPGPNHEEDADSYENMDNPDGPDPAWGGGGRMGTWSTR

anti-CD19 CAR (anti-CD19 CAR cassette as described in WO 2012/079000), expressed on transduced T-cells
change in IL-12 expression (NFAT promoter, 3'-UTR not responsive to CAR stimulation): 50 fold
change in IL-12 expression (NFAT promoter, RDE1 (Gold1)): 168 fold
change in IL-12 expression (minP promoter, RDE1 (Gold1)): 6.3 fold
change in activated cells in the population (CD25, CD69; GFP-RDE1 bicistronic construct): 0.9 to 84.8%
change in activated cells in the population (CD25, CD69; GFP-RDE2.1 bicistronic construct): 3.9 to 12.1%
change in activated cells in the population (CD25, CD69; doubly transduced T-cells): 0.9 to 56.9%
change in activated cells in the population (CD25, CD69; singly transduced, bicistronic construct): 3.6 to 5.8%
increase in bioluminescence (MinP promoter, RDE1): 4.1 fold
increase in bioluminescence (MinP promoter, RDE2): 1.8 fold
increase in bioluminescence (MinP promoter, RDE3): 1.4 fold
increase in bioluminescence (NFAT promoter, RDE1): 8.5 fold
increase in bioluminescence (NFAT promoter, RDE2): 3.1 fold
increase in bioluminescence (NFAT promoter, RDE3): 1.3 fold
increase in fluorescence (GFP-RDE1): 6.5%
increase in fluorescence (GFP-RDE2, doubly transduced T-cells): 19.5 to 42.5%
